Results reported in US10500249B2, “Compositions and methods for preventing or treating diseases, conditions, or processes characterized by aberrant fibroblast proliferation and extracellular matrix deposition” (MOERAE MATRIX, INC., priority 2014, dated 2019).

What was measured:
Assay in all cases: Kinase Profiling Assay
Type in all cases: biochemical
Conditions in all cases: 100 μM
[1] = target: T1, DDR2 (h) (Homo sapiens, UniProt Q16832)
T1 construct: purchased Millipore
T1 sequence (Q16832 22-855): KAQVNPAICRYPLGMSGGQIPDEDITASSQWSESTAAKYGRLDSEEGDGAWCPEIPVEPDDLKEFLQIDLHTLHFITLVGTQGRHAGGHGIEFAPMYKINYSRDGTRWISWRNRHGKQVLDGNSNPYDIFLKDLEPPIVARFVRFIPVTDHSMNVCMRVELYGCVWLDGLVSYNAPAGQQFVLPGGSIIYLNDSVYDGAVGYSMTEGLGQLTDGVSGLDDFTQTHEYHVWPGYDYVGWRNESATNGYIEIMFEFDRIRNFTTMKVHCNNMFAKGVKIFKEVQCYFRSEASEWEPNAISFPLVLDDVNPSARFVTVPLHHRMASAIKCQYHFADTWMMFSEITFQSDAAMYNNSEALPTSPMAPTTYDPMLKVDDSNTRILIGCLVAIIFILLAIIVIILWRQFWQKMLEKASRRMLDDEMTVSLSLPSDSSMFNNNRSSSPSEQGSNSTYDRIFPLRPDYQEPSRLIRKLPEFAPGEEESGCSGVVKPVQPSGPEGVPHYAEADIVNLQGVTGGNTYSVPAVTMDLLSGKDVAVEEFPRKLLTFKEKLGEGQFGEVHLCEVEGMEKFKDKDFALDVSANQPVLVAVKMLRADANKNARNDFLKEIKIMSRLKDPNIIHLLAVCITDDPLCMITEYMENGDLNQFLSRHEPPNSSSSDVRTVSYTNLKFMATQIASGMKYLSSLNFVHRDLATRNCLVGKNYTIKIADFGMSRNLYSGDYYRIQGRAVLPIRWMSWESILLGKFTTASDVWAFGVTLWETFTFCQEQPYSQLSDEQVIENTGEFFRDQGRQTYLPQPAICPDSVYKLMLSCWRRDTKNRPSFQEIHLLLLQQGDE
In short: (§1)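 Duplicate wells; [radiolabeled] ATP phosphate onto cationic substrate; filter capture (negatively charged membrane); scintillation count; % of 100% activity control. Selectivity screen of MK2 peptide inhibitors, 266 human kinases.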

[2] = target: T2, PKCτ (h) (Homo sapiens, UniProt P41743)
T2 sequence (P41743 1-596): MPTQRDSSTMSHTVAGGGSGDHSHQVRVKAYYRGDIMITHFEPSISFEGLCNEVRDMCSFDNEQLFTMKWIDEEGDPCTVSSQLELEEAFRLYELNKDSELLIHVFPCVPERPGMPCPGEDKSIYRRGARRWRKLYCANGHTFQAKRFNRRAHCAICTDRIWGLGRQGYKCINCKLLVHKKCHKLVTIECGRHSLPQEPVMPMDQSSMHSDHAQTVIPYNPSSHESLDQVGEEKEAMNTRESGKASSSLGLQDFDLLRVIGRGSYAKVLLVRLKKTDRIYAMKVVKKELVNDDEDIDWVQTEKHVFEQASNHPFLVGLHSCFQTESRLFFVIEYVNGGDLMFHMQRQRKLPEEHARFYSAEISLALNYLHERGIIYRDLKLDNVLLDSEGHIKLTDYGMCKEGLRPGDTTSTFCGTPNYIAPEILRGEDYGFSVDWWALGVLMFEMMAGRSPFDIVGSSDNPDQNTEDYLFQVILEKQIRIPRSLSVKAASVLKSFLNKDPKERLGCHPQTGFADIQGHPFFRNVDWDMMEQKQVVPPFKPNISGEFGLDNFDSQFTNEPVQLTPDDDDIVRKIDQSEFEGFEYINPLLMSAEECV
In short: as §1

[3] = target: T3, EphA8 (h) (Homo sapiens, UniProt P29322)
T3 sequence (P29322 28-1005): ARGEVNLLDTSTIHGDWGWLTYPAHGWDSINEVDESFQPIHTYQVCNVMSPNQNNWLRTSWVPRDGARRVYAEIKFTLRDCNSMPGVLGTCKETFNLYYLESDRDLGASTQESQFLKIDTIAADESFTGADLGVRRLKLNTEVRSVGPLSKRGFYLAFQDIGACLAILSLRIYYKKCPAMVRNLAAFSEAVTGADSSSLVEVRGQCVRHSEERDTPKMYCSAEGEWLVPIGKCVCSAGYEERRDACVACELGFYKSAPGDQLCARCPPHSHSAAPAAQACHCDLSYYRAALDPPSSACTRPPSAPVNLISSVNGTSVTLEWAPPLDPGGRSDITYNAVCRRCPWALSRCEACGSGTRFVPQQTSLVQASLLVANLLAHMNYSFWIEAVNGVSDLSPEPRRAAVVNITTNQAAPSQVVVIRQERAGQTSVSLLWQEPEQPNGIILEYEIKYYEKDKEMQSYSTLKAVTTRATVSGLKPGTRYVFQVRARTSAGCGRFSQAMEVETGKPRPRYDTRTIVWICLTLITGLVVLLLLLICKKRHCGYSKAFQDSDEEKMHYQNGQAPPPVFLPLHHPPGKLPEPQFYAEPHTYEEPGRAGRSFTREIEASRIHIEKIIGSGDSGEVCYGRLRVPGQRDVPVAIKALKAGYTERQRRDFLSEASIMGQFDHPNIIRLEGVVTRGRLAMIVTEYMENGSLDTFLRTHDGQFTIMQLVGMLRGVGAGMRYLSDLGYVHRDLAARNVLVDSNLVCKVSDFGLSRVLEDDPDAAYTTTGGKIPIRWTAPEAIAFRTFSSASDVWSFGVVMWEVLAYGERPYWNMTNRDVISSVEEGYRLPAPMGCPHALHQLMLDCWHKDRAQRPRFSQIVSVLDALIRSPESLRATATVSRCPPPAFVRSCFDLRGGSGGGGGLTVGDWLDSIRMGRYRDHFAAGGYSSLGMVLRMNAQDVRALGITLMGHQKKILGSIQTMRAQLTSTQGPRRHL
In short: as §1

FAKLAARLYRKALARQLGVAA [MMI-0300]
% activity [1]: 94% | % activity [2]: 68% | % activity [3]: 93%

HRRIKAWLKKIKALARQLGVAA (Mammalian) [MMI-0500]
% activity [1]: 79% | % activity [2]: 7% | % activity [3]: 337%

KAFAKLAARLYRKALARQLGVAA [MMI-0400]
% activity [1]: 95% | % activity [2]: 46% | % activity [3]: 146%

YARAAARQARAKALNRQLGVA (Mammalian) [MMI-0200]
% activity [2]: 97% | % activity [3]: 133%
